± gives the standard deviation.
Assay: collision cross section of modified peptide (TIMS, N2, iRT-aligned); higher = larger / more extended gas-phase ion
Summary of the method: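 Values are averages of 1–3 technical replicates of the most abundant feature for each charge state. Collision cross section was obtained from the Mason-Schamp equation after 1/K0 calibration with three reference ions and run-wise alignment to the median iRT peptide deviation. Synthetic peptide pools (iRT standard spiked 1:40) were separated on a 120-min nanoflow C18 gradient at 60 °C, analysed on a timsTOF Pro/HT (dda-PASEF, nitrogen, ~2.4 mbar) and identified with MaxQuant.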

[1] = charge state: 2, modification: Methyl (K)
[2] = charge state: 3, modification: Methyl (K)
[3] = charge state: 2, modification: Succinyl
[4] = charge state: 3, modification: Succinyl
[5] = charge state: 2, modification: Trimethyl (K)
[6] = charge state: 3, modification: Trimethyl (K)
[7] = charge state: 2, modification: hydroxyisobutyryl
[8] = charge state: 3, modification: hydroxyisobutyryl
[9] = charge state: 2, modification: Nitro (Y)
[10] = charge state: 2, modification: Phospho (Y)
[11] = charge state: 3, modification: Citrullination (R)
[12] = charge state: 3, modification: Methyl (R)
[13] = charge state: 2, modification: Citrullination (R)
[14] = charge state: 2, modification: Acetyl (K)
[15] = charge state: 3, modification: Acetyl (K)
[16] = charge state: 2, modification: Butyryl
[17] = charge state: 3, modification: Butyryl
[18] = charge state: 3, modification: Dimethyl (K)
[19] = charge state: 2, modification: Formyl
[20] = charge state: 3, modification: Formyl
[21] = charge state: 2, modification: Glutarylation
[22] = charge state: 3, modification: Glutarylation
[23] = charge state: 3, modification: GlyGly (K)
[24] = charge state: 2, modification: Crotonyl
[25] = charge state: 2, modification: GlyGly (K)
[26] = charge state: 2, modification: Malonyl
[27] = charge state: 2, modification: Hydroxyproline
[28] = charge state: 3, modification: Hydroxyproline
[29] = charge state: 2, modification: Methyl (R)

## FDDTNPEKEEAK [_FDDTNPEK(Methyl (K))EEAK_]
[1]
  collision cross section: 400.43 ± 1.8 Å²
[2]
  collision cross section: 498.56 ± 1.5 Å²

## FDDTNPEKEEAK [_FDDTNPEK(Propionyl)EEAK_]
Charge state: 2, modification: Propionyl
  collision cross section: 396.96 ± 0.65 Å²

## FDDTNPEKEEAK [_FDDTNPEK(Succinyl)EEAK_]
[3]
  collision cross section: 397.2 ± 0.56 Å²
[4]
  collision cross section: 438.25 ± 3.4 Å²

## FDDTNPEKEEAK [_FDDTNPEK(Trimethyl (K))EEAK_]
[5]
  collision cross section: 399.27 ± 1.6 Å²
[6]
  collision cross section: 487.6 ± 1.9 Å²

## FDDTNPEKEEAK [_FDDTNPEK(hydroxyisobutyryl)EEAK_]
[7]
  collision cross section: 401.52 ± 0.54 Å²
[8]
  collision cross section: 443.87 ± 2.2 Å²

## FEGAIYR [_FEGAIY(Nitro (Y))R_]
[9]
  collision cross section: 321.92 ± 0.71 Å²

## FEGAIYR [_FEGAIY(Phospho (Y))R_]
[10]
  collision cross section: 333.04 ± 0.65 Å²

## FGDSRGGGGNFGPGPGSNFR [_FGDSR(Citrullination (R))GGGGNFGPGPGSNFR_]
[11]
  collision cross section: 490.23 ± 0.77 Å²

## FGDSRGGGGNFGPGPGSNFR [_FGDSR(Methyl (R))GGGGNFGPGPGSNFR_]
[12]
  collision cross section: 500.57 ± 1.4 Å²

## FGRGTGLTQPSQR [_FGR(Citrullination (R))GTGLTQPSQR_]
[13]
  collision cross section: 390.81 ± 0.16 Å²

## FGRGTGLTQPSQR [_FGR(Methyl (R))GTGLTQPSQR_]
[12]
  collision cross section: 470.4 ± 2.6 Å²

## FGSRGGPGGGFR [_FGSR(Citrullination (R))GGPGGGFR_]
[13]
  collision cross section: 349.6 ± 0.64 Å²

## FGSRGGPGGGFR [_FGSR(Methyl (R))GGPGGGFR_]
[12]
  collision cross section: 435.83 ± 3.2 Å²

## FGTINIVHPKLGSYTK [_FGTINIVHPK(Acetyl (K))LGSYTK_]
[14]
  collision cross section: 467.42 ± 3.8 Å²
[15]
  collision cross section: 551.28 ± 1.6 Å²

## FGTINIVHPKLGSYTK [_FGTINIVHPK(Butyryl)LGSYTK_]
[16]
  collision cross section: 477.38 ± 1.1 Å²
[17]
  collision cross section: 553.18 ± 2.9 Å²

## FGTINIVHPKLGSYTK [_FGTINIVHPK(Crotonyl)LGSYTK_]
Charge state: 3, modification: Crotonyl
  collision cross section: 553.88 ± 2 Å²

## FGTINIVHPKLGSYTK [_FGTINIVHPK(Dimethyl (K))LGSYTK_]
[18]
  collision cross section: 520.37 ± 1.2 Å²

## FGTINIVHPKLGSYTK [_FGTINIVHPK(Formyl)LGSYTK_]
[19]
  collision cross section: 468.22 ± 1.4 Å²
[20]
  collision cross section: 546.15 ± 1.5 Å²

## FGTINIVHPKLGSYTK [_FGTINIVHPK(Gluratylation)LGSYTK_]
[21]
  collision cross section: 478.34 Å²
[22]
  collision cross section: 554.9 ± 0.14 Å²

## FGTINIVHPKLGSYTK [_FGTINIVHPK(GlyGly (K))LGSYTK_]
[23]
  collision cross section: 511.55 ± 1.9 Å²

## FGTINIVHPKLGSYTK [_FGTINIVHPK(Methyl (K))LGSYTK_]
[1]
  collision cross section: 470.37 Å²
[2]
  collision cross section: 541.06 ± 0.45 Å²

## FGTINIVHPKLGSYTK [_FGTINIVHPK(Succinyl)LGSYTK_]
[3]
  collision cross section: 474.47 ± 1.3 Å²
[4]
  collision cross section: 560.66 ± 0.77 Å²

## FGTINIVHPKLGSYTK [_FGTINIVHPK(Trimethyl (K))LGSYTK_]
[6]
  collision cross section: 502.05 ± 2.2 Å²

## FGTINIVHPKLGSYTK [_FGTINIVHPK(hydroxyisobutyryl)LGSYTK_]
[7]
  collision cross section: 477.53 ± 1.6 Å²
[8]
  collision cross section: 560.61 ± 2.1 Å²

## FGVEAFSDCLR [_FGVEAFS(HexNAc (ST))DCLR_]
Charge state: 2, modification: HexNAc (ST)
  collision cross section: 398.33 ± 0.63 Å²

## FGYVDFESAEDLEK [_FGY(Nitro (Y))VDFESAEDLEK_]
[9]
  collision cross section: 424.66 Å²

## FHYQDQEFLK [_FHY(Nitro (Y))QDQEFLK_]
[9]
  collision cross section: 402.47 ± 0.18 Å²
Charge state: 3, modification: Nitro (Y)
  collision cross section: 452.15 ± 1.1 Å²

## FHYQDQEFLK [_FHY(Phospho (Y))QDQEFLK_]
[10]
  collision cross section: 397.81 ± 0.64 Å²
Charge state: 3, modification: Phospho (Y)
  collision cross section: 447.23 ± 0.12 Å²

## FIHQQPQSSSPVYGSSAK [_FIHQQPQSSSPVYGS(HexNAc (ST))SAK_]
Charge state: 3, modification: HexNAc (ST)
  collision cross section: 528.58 ± 0.18 Å²

## FLQEFYQDDELGK [_FLQEFY(Nitro (Y))QDDELGK_]
[9]
  collision cross section: 428.07 ± 1.5 Å²

## FLQEFYQDDELGKK [_FLQEFYQDDELGK(Acetyl (K))K_]
[14]
  collision cross section: 444.35 ± 1.6 Å²
[15]
  collision cross section: 501.5 ± 0.084 Å²

## FLQEFYQDDELGKK [_FLQEFYQDDELGK(Butyryl)K_]
[16]
  collision cross section: 451.46 ± 0.51 Å²
[17]
  collision cross section: 506.1 Å²

## FLQEFYQDDELGKK [_FLQEFYQDDELGK(Crotonyl)K_]
[24]
  collision cross section: 450.33 ± 0.0083 Å²

## FLQEFYQDDELGKK [_FLQEFYQDDELGK(Dimethyl (K))K_]
Charge state: 2, modification: Dimethyl (K)
  collision cross section: 456.43 ± 1.8 Å²
[18]
  collision cross section: 499.62 ± 0.75 Å²

## FLQEFYQDDELGKK [_FLQEFYQDDELGK(Formyl)K_]
[19]
  collision cross section: 444.03 ± 0.77 Å²

## FLQEFYQDDELGKK [_FLQEFYQDDELGK(Gluratylation)K_]
[21]
  collision cross section: 453.64 ± 1.5 Å²
[22]
  collision cross section: 517.26 Å²

## FLQEFYQDDELGKK [_FLQEFYQDDELGK(GlyGly (K))K_]
[25]
  collision cross section: 460.97 ± 1.6 Å²
[23]
  collision cross section: 512.67 ± 1.3 Å²

## FLQEFYQDDELGKK [_FLQEFYQDDELGK(Malonyl)K_]
[26]
  collision cross section: 451.48 ± 0.99 Å²

## FLQEFYQDDELGKK [_FLQEFYQDDELGK(Methyl (K))K_]
[1]
  collision cross section: 445.9 ± 2.4 Å²
[2]
  collision cross section: 499.81 ± 3 Å²

## FLQEFYQDDELGKK [_FLQEFYQDDELGK(Succinyl)K_]
[3]
  collision cross section: 450.32 ± 0.96 Å²

## FLQEFYQDDELGKK [_FLQEFYQDDELGK(Trimethyl (K))K_]
[5]
  collision cross section: 464.1 ± 0.55 Å²
[6]
  collision cross section: 508.12 ± 1.8 Å²

## FLQEFYQDDELGKK [_FLQEFYQDDELGK(hydroxyisobutyryl)K_]
[7]
  collision cross section: 452.81 ± 0.81 Å²
[8]
  collision cross section: 512.84 ± 1.6 Å²

## FNALFAQGNYSEAAK [_FNALFAQGNY(Nitro (Y))SEAAK_]
[9]
  collision cross section: 433.45 ± 0.55 Å²

## FNALFAQGNYSEAAK [_FNALFAQGNY(Phospho (Y))SEAAK_]
[10]
  collision cross section: 426.34 ± 0.64 Å²

## FPGVGVLPGVPTGAGVK [_FPGVGVLP(Hydroxyproline)GVPTGAGVK_]
[27]
  collision cross section: 432.68 ± 8.7 Å²
[28]
  collision cross section: 504.05 ± 5.9 Å²

## FPGVGVLPGVPTGAGVKPK [_FPGVGVLPGVPTGAGVKP(Hydroxyproline)K_]
[27]
  collision cross section: 440.08 ± 1.4 Å²
[28]
  collision cross section: 556.97 ± 11 Å²

## FRSGNYR [_FR(Citrullination (R))SGNYR_]
[13]
  collision cross section: 327.94 ± 2.8 Å²

## FRSGNYR [_FR(Methyl (R))SGNYR_]
[29]
  collision cross section: 333.09 ± 1 Å²
[12]
  collision cross section: 399.51 ± 0.82 Å²

## FSAYIKNSNPALNDNLEK [_FSAYIK(Acetyl (K))NSNPALNDNLEK_]
[14]
  collision cross section: 479.82 ± 3 Å²
[15]
  collision cross section: 541.74 Å²

## FSAYIKNSNPALNDNLEK [_FSAYIK(Biotin)NSNPALNDNLEK_]
Charge state: 2, modification: Biotin
  collision cross section: 499.7 ± 0.61 Å²
Charge state: 3, modification: Biotin
  collision cross section: 526.24 Å²

## FSAYIKNSNPALNDNLEK [_FSAYIK(Butyryl)NSNPALNDNLEK_]
[16]
  collision cross section: 487.55 ± 1 Å²
[17]
  collision cross section: 548.32 ± 1.1 Å²

## FSAYIKNSNPALNDNLEK [_FSAYIK(Crotonyl)NSNPALNDNLEK_]
[24]
  collision cross section: 486.61 ± 2.3 Å²

## FSAYIKNSNPALNDNLEK [_FSAYIK(Dimethyl (K))NSNPALNDNLEK_]
[18]
  collision cross section: 510.58 ± 2.9 Å²

## FSAYIKNSNPALNDNLEK [_FSAYIK(Formyl)NSNPALNDNLEK_]
[19]
  collision cross section: 479.47 ± 1.3 Å²
[20]
  collision cross section: 528.92 ± 9.9 Å²

## FSAYIKNSNPALNDNLEK [_FSAYIK(Gluratylation)NSNPALNDNLEK_]
[21]
  collision cross section: 487.96 ± 2 Å²
[22]
  collision cross section: 547.09 ± 1.3 Å²

## FSAYIKNSNPALNDNLEK [_FSAYIK(GlyGly (K))NSNPALNDNLEK_]
[25]
  collision cross section: 506.19 ± 1.5 Å²
[23]
  collision cross section: 530.18 ± 11 Å²

## FSAYIKNSNPALNDNLEK [_FSAYIK(Malonyl)NSNPALNDNLEK_]
[26]
  collision cross section: 479.79 ± 4.5 Å²
Charge state: 3, modification: Malonyl
  collision cross section: 527.7 ± 2.3 Å²

## FSAYIKNSNPALNDNLEK [_FSAYIK(Methyl (K))NSNPALNDNLEK_]
[1]
  collision cross section: 493.27 Å²
[2]
  collision cross section: 508.45 ± 2.8 Å²

## FSAYIKNSNPALNDNLEK [_FSAYIK(Succinyl)NSNPALNDNLEK_]
[3]
  collision cross section: 492.09 ± 3.4 Å²
[4]
  collision cross section: 527.54 ± 2 Å²

## FSAYIKNSNPALNDNLEK [_FSAYIK(Trimethyl (K))NSNPALNDNLEK_]
[6]
  collision cross section: 516.88 ± 0.87 Å²

## FSAYIKNSNPALNDNLEK [_FSAYIK(hydroxyisobutyryl)NSNPALNDNLEK_]
[7]
  collision cross section: 489.27 ± 0.86 Å²
[8]
  collision cross section: 551.92 ± 1.1 Å²

## FSHSVQNSERGK [_FSHSVQNSER(Citrullination (R))GK_]
[13]
  collision cross section: 390.38 ± 0.44 Å²
[11]
  collision cross section: 441.33 ± 1.8 Å²

## FSHSVQNSERGK [_FSHSVQNSER(Methyl (R))GK_]
[29]
  collision cross section: 405.91 ± 1.3 Å²
[12]
  collision cross section: 465.06 ± 2.1 Å²

From the supplement of paper PMC10598134
